Data reported in patent US20080213817A1, “Enhancement of Th2-Dependent and Inflammatory Response” (priority 2004, published 2008).

Tested on: WT thymocytes
Assay: Thymocyte proliferation, [3H] thymidine incorporation
Format: cell-based, mice
Settings: anti-CD3 or anti-CD3+anti-CD28, 72 hrs, increasing amounts of IL-4
Method: For proliferation assays, purified thymocytes or CD4^+ or CD8^+ splenic T cells (2×10^5 cells/well) were cultured in round bottom 96-well plates (Costar) precoated with anti-CD3 antibody (BD Pharmingen) in the absence or presence of soluble anti-CD28 antibody (BD Pharmingen). After 3 days, cultures were pulsed for 6 hrs with 1 μCi [^3H] thymidine (New England Nuclear) per well and cells were harvested. [^3H] thymidine incorporation was measured by scintillation counting. When indicated, either recombinant IL-4 or neutralizing anti-IL-4 antibody (R&D Systems) were added prior to [^3H] thymidine labeling.
For proliferation assays, purified thymocytes (2×10^5 cells/well) were cultured in round bottom 96-well plates (Costar) precoated with anti-CD3 antibody (BD Pharmingen) in the absence or presence of soluble anti-CD28 antibody (BD Pharmingen). […] [^3H] thymidine incorporation was measured by scintillation counting. […]
The effect of the Mekk1^KD mutation on activation of JNK and other MAPKs in response to TCR and CD28 engagement was investigated. • A. WT and Mekk1^KD thymocytes were incubated with anti-CD3 (10 μg/ml) and anti-CD28 (1 μg/ml). At the indicated times, JNK activity was measured by an immunecomplex kinase assay using GST-c-Jun(1-79) as the substrate. Phosphorylated c-Jun was detected by autoradiography and quantitated using a PhosphorImager. […] Cell proliferation was measured as above. […]

B1: IL-4: recombinant IL-4 (R&D Systems), added exogenously (protein, UniProt P05112 25-153, looked up)
Interleukin-4: HKCDITLQEIIKTLNSLTEQKTLCTELTVTDIFAASKNTTEKETFCRAATVLRQFYSHHEKDTRCLGATAQQFHRHKQLIRFLKRLDRNLWGLAGLNSCPVKEANQSTLENFLERLKTIMREKYSKCSS
proliferative response of WT thymocytes on addition of exogenous IL-4: strongly potentiated
